Source: patent US20250304643A1 (BAINAN BIOTECH, published 2025)
*1 amine or outer side, *2 acyl side, *3 side chain or, on linkers, in order; H or OH if unused. Where no end group is shown, it is not given here. Side-chain parts run from the residue outwards. [ ]: non-standard residue; d: D form. The star is where a group is joined. γGlu = O=C(O)[C@H](CCC(=O)[*:2])N[*:1]; Palmitoyl = CCCCCCCCCCCCCCCC(=O)*; Decanoyl = CCCCCCCCCC(=O)*; Aib = CC(C)(N)C(=O)O

T1: human glucose-dependent insulinotropic polypeptide receptor (human, UniProt P48546 22-466)
T1 sequence (looked up): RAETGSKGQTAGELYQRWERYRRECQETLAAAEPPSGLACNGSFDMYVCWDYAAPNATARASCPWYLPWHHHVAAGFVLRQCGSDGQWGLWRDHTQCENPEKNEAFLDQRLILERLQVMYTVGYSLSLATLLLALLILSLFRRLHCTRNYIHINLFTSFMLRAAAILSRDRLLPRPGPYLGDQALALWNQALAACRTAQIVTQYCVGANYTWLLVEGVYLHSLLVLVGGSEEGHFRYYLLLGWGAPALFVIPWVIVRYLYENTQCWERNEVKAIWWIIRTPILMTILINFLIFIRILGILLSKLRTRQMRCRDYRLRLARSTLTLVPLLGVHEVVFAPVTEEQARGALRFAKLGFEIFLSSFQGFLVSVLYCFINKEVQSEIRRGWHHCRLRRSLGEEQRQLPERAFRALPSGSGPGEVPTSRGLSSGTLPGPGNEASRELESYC

T2: human glucagon-like peptide-2 receptor (human, UniProt O95838 1-553)
T2 sequence (looked up): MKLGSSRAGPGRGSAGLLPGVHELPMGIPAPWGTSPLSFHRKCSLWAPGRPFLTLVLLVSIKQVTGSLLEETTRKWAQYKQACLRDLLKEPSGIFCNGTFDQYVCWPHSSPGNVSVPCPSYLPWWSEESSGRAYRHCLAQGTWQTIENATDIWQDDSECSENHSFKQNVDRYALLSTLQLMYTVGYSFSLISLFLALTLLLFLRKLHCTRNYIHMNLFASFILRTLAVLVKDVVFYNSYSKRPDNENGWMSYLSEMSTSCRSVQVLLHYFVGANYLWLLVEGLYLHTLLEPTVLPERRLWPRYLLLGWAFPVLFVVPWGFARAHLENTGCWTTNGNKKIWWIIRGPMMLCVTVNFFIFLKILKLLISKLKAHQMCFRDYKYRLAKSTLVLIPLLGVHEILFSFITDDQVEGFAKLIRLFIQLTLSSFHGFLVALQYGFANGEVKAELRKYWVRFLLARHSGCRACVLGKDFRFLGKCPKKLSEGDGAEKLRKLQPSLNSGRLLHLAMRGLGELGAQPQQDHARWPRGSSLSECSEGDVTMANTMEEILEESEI

B1: Compound no. 31 (peptide)
peptide: H[Aib]DGTFISDYK([γGlu-Decanoyl])TILDKLAARDFIEWLIATKITK-OH
modifications: N-terminus assumed
SMILES: CCCCCCCCCC(=O)N[C@@H](CCC(=O)NCCCC[C@H](NC(=O)[C@H](Cc1ccc(O)cc1)NC(=O)[C@H](CC(=O)O)NC(=O)[C@H](CO)NC(=O)[C@@H](NC(=O)[C@H](Cc1ccccc1)NC(=O)[C@@H](NC(=O)CNC(=O)[C@H](CC(=O)O)NC(=O)C(C)(C)NC(=O)[C@@H](N)Cc1c[nH]cn1)[C@@H](C)O)[C@@H](C)CC)C(=O)N[C@H](C(=O)N[C@H](C(=O)N[C@@H](CC(C)C)C(=O)N[C@@H](CC(=O)O)C(=O)N[C@@H](CCCCN)C(=O)N[C@@H](CC(C)C)C(=O)N[C@@H](C)C(=O)N[C@@H](C)C(=O)N[C@@H](CCCNC(=N)N)C(=O)N[C@@H](CC(=O)O)C(=O)N[C@@H](Cc1ccccc1)C(=O)N[C@H](C(=O)N[C@@H](CCC(=O)O)C(=O)N[C@@H](Cc1c[nH]c2ccccc12)C(=O)N[C@@H](CC(C)C)C(=O)N[C@H](C(=O)N[C@@H](C)C(=O)N[C@H](C(=O)N[C@@H](CCCCN)C(=O)N[C@H](C(=O)N[C@H](C(=O)N[C@@H](CCCCN)C(=O)O)[C@@H](C)O)[C@@H](C)CC)[C@@H](C)O)[C@@H](C)CC)[C@@H](C)CC)[C@@H](C)CC)[C@@H](C)O)C(=O)O
B2: Compound no. 32 (peptide)
peptide: H[Aib]DGTFISDYK([γGlu-Palmitoyl])TILDNLAARDFINWLIETKITK-OH
modifications: N-terminus assumed
SMILES: CCCCCCCCCCCCCCCC(=O)N[C@@H](CCC(=O)NCCCC[C@H](NC(=O)[C@H](Cc1ccc(O)cc1)NC(=O)[C@H](CC(=O)O)NC(=O)[C@H](CO)NC(=O)[C@@H](NC(=O)[C@H](Cc1ccccc1)NC(=O)[C@@H](NC(=O)CNC(=O)[C@H](CC(=O)O)NC(=O)C(C)(C)NC(=O)[C@@H](N)Cc1c[nH]cn1)[C@@H](C)O)[C@@H](C)CC)C(=O)N[C@H](C(=O)N[C@H](C(=O)N[C@@H](CC(C)C)C(=O)N[C@@H](CC(=O)O)C(=O)N[C@@H](CC(N)=O)C(=O)N[C@@H](CC(C)C)C(=O)N[C@@H](C)C(=O)N[C@@H](C)C(=O)N[C@@H](CCCNC(=N)N)C(=O)N[C@@H](CC(=O)O)C(=O)N[C@@H](Cc1ccccc1)C(=O)N[C@H](C(=O)N[C@@H](CC(N)=O)C(=O)N[C@@H](Cc1c[nH]c2ccccc12)C(=O)N[C@@H](CC(C)C)C(=O)N[C@H](C(=O)N[C@@H](CCC(=O)O)C(=O)N[C@H](C(=O)N[C@@H](CCCCN)C(=O)N[C@H](C(=O)N[C@H](C(=O)N[C@@H](CCCCN)C(=O)O)[C@@H](C)O)[C@@H](C)CC)[C@@H](C)O)[C@@H](C)CC)[C@@H](C)CC)[C@@H](C)CC)[C@@H](C)O)C(=O)O

How the values were obtained:
[1] = molecular target: T1, human glucose-dependent insulinotropic …; assay: cell-based or functional assay
[2] = molecular target: T2, human glucagon-like peptide-2 receptor; assay: cell-based or functional assay

Binder | Efficacy GIPR [1] [%] | Efficacy GLP-2R [2] [%] | EC50 (nM) GLP-2R [2] [nM] | logEC50 GLP-2R [2]
B1 | 89 | 90 | – | –
B2 | 89 | 84 | 10 | 8
